Key:
[1] = molecular target: the molecule itself; assay: SEC; Superdex S-75 in buffer C (20 mM Tris pH 8.8, 0.5 M NaCl, 10% glycerol, 5 mM GSH, 1 mM TCEP), calibrated with gel filtration standard markers; self-association
[2] = molecular target: the molecule itself; assay: dynamic light scattering; protein at 2 mg/mL, after SEC, 25 °C; self-association

B1: Arabidopsis thaliana NLP7 (AtNLP7) PB1 domain, wild type (domain or fragment, UniProt Q84TH9 863-945, looked up)
chain: TVTIKASYKDDIIRFRISSGSGIMELKDEVAKRLKVDAGTFDIKYLDDDNEWVLIACDADLQECLEIPRSSRTKIVRLLVHDV
notes: NIN-like protein 7 (AtNLP7), Arabidopsis thaliana, PB1 domain at the C-terminus of AtNLP7; PCR-amplified from plasmid pDL2Nx-NLP7 PB1 with the printed primers PB1-EcoRI and PB1-HindIII, subcloned into pET28a; A thrombin cleavage site follows the N-terminal His6 tag; no cleavage step is described and the purified protein is called 6xHis-NLP7 PB1 (15.6 kDa); also called NLP7 PB1wt; 6xHis-NLP7 PB1 …
- stoichiometry N [1]: 2
- stoichiometry N [2]: 4
